This note sets out measurements from patent US20200347143A1 (GLENMARK PHARMACEUTICALS S A, published 2020).

To fix the notation:
B1: OX40-CRD-Avi-his (receptor)
chain: LHCVGDTYPSNDRCCHECRPGNGMVSRCSRSQNTVCRPCGPGFYNDVVSSKPCKPCTWCNLRSGSERKQLCTATQDTVCRCRAGTQPLDSYKPGVDCAPCPPGHFSPGDNQACKPWTNCTLAGKHTLQPASNSSDAICEDRDGLNDIFEAQKIEWHEHHHHHH
notes: limits of the construct not described

In assay [1] the target is pab1949 scFv fused in C-terminus (Fc fragment after digestion). The assay can be described thus: SPR, Fc-scFv fragment captured by anti-human IgG Fc, OX40-CRD-Avi-his injected. Here is the method: The antibody/protease mixture was incubated over night at 37° C. […] After each binding event, the surface was regenerated with 10 μl of MgCl2 (3M) buffer. Experimental data were processed using a 1:1 Langmuir model with local Rmax. The dissociation time was about 7 min.
(§1) Dilution series of hsOX40_CRD_Avi_His (SEQ ID NO: 159) were then injected.
A general note: In SPR one partner is held on a chip, and binding of the other changes the refractive index at the surface.

The target in another assay is T1, human OX40 on cells (human, UniProt P43489 29-277).
T1 sequence (looked up): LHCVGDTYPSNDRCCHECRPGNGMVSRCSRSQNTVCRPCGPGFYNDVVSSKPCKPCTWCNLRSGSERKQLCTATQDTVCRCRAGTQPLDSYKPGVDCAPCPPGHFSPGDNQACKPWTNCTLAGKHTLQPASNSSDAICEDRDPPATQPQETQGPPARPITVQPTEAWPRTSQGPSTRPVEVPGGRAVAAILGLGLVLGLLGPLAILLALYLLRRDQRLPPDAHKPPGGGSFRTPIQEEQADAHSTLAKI
Briefly: cell-based or functional assay.

In the next assay the target is rat OX40-Fc (rat). Briefly: ELISA on coated rat OX40-Fc. The procedure:
These constructs were expressed in HEK293-EBNA1 cells and purified using protein A. Then, human and rat OX40-Fc were tested in ELISA and Biacore to determine antibody cross-reactivity. For the ELISA, 96 well-microtiter plates (Costar USA, distributor VWR AG, Nyon, Switzerland) were coated with 100 μl of recombinant human or rat OX40-Fc at 2 μg/ml in PBS. Plates were incubated overnight at 4° C. and were then blocked with PBS 2% BSA (Bovine Serum Albumine, PAA Laboratories, Pasching, Austria) at room temperature (RT) for one hour. The blocking solution was removed and the purified antibodies were added at 10 μg/ml in PBS 2% BSA. The plates were incubated at RT for 1 hour, then washed 5 times with PBS 0.01% Tween-20 (Sigma-Aldrich Chemie GmbH, Buchs, Switzerland). […] Plates were incubated for 1 hour at RT, washed 5 times with PBS 0.01% Tween-20 and the TMB substrate (Bio-rad Laboratories AG, Reinach, Switzerland) was added to the plates and the reaction stopped after 5 minutes by adding H₂SO₄. Absorbance was then read at 450 nm by a microplate reader (Biotek, USA; distributor: WITTEC AG, Littau, Switzerland). Biacore experiments were specifically conducted with Hexa-hzG3V9 and Hexa-hz1D10v1 which are dAb-Fc fusion proteins. […] Binding of human and cyno OX40-Fc molecules was determined by successively injecting these proteins on the 4 flow-paths (flow-path 1 and 3 being used as references) at a concentration of 200 nM and a flow rate of 30 uL/min for 240 seconds. Regeneration between the two injections was done using 3M MgCl2, at 30 uL/min for 60 seconds. Using these two approaches, human/rat OX40 binding was assessed (table 16).
On the technique in general: ELISA stands for enzyme-linked immunosorbent assay.

The assay “OX40-CRD-Avi-his” deals with B1. The assay can be described thus: SPR, antibody captured by anti-human IgG Fc, hsOX40_CRD_Avi_His injected. Here is the method: as §1
Assay [2] addresses T2, recombinant human OX40-his protein (human, UniProt P43489 29-214).
T2 construct: Secreted via the native signal peptide, which lies within residues 1-214; also called Human OX40R-His; histidine tagged human OX40 receptor extracellular domain
T2 sequence: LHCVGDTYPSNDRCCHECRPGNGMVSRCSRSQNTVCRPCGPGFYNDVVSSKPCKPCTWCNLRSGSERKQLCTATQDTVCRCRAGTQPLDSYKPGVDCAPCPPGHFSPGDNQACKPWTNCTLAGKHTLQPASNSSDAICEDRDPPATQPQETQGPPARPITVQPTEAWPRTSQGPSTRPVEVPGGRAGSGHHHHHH
Briefly: direct ELISA on coated OX40-his. Here is the method:
Plates were incubated overnight at 4° C. and were then blocked with PBS 2% BSA (Bovine Serum Albumine, PAA Laboratories, Pasching, Austria) at room temperature (RT) for one hour. […] Absorbance was then read at 450 nm by a microplate reader (Biotek, USA; distributor: WITTEC AG, Littau, Switzerland).

Sequence of rat OX40-Fc (rat) (chain, as listed by the source limits assumed): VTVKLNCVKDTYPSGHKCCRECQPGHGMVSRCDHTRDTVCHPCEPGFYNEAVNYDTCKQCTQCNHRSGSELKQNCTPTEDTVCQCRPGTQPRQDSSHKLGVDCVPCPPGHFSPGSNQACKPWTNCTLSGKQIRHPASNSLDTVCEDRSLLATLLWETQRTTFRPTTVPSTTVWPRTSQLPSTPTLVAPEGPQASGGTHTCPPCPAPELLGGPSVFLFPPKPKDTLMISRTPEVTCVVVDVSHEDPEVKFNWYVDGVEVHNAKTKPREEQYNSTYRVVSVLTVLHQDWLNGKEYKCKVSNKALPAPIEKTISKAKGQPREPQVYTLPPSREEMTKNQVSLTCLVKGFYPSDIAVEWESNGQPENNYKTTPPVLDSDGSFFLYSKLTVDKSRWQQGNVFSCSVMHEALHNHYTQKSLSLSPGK

Regarding B1, the equilibrium dissociation constant (Kd) (usually the free concentration of one partner at which half of the binding sites on the other are occupied at equilibrium, for simple one-to-one binding) in assay [1] came out at 460 nM.

B2: pab1949 IgG1 (antibody, V domains shown)
VH: EVQLVESGGGLVQPGGSLKLSCAASGFTFSGSAMHWVRQASGKCLEWVGRIRSKANSYATAYAASVKGRFTISRDDSKNTAYLQMNSLKTEDTAVYYCTSGIYDSSGYDYWGQGTLVTVSS
VL: not shown
For B2, in the assay with human OX40 on cells, the “% donor responder (>2), SEB assay, IL-2 release” value was 80% and the “Mean, normalized IL-2 release, SEB assay” value was found to be 4.74. Also, the binding result in the assay with rat OX40-Fc is “no binding (tested: 10 µg/ml)”. This molecule also came in with a Kd with OX40-CRD-Avi-his of 304 nM.

B3: mouse 2H6 antibody (hybridoma 2H6) (antibody, V domains shown)
VH: DVQLQESGPGLVKPSQSLSLTCTVTGYSITSDYAWNWIRQFPGNKLEWMGYISYSGSTAYNPSLKSRISITRDTSKNQFFLQLNSVTTEDTATYYCARGPYNYLAYWGQGTLVTVSS
VL: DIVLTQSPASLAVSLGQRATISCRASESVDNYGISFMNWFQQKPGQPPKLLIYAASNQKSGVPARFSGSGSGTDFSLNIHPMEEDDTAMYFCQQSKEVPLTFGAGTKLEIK
notes: also called mouse antibody 2H6
As to B3, the binding result in assay [2] was “binds”.
